Data on one molecule can be found in paper PMC5389579.

For the data set, the target named is SSRP1 (Flag) (human, UniProt Q08945 1-709). The data set is described as follows: EMSA.
Chain of SSRP1 (Flag) (Q08945 whole entry): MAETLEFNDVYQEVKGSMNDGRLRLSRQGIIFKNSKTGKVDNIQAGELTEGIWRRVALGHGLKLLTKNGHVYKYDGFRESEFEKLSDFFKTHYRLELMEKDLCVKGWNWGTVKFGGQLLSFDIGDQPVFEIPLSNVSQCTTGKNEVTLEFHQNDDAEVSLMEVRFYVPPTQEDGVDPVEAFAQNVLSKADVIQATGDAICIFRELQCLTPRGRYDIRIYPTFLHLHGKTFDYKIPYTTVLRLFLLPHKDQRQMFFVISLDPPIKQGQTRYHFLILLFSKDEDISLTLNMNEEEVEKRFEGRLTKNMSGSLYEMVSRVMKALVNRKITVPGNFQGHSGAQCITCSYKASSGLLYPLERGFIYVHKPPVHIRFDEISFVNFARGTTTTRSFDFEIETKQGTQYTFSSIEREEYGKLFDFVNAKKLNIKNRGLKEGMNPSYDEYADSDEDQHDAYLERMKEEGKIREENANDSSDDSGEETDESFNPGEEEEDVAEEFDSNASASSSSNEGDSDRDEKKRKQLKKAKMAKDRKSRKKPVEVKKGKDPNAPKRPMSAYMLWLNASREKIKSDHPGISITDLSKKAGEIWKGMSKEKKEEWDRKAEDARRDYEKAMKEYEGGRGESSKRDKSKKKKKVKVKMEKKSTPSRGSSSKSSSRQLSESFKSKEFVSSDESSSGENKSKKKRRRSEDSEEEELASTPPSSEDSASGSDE

B1: AC probe (dsDNA)
DNA 1: ACACACACACACACACACACACACACACACACACAC
DNA 2: GTGTGTGTGTGTGTGTGTGTGTGTGTGTGTGTGTGT
As for B1, the binding result was “binds”.
